Experimental findings from PMC10586780 (Biochemical Journal, 2023) are described below.

Several values for one entry are separate records, joined by “and”; a condition that tells them apart may be missing. Equal entries are not always repeated.

The data set concerns the molecule itself. As to the kind of experiment: native gel or EMSA.

B1: human platelet phosphofructokinase-1 with the cancer-associated mutation D564N (PFKP-D564N), recombinant (enzyme, UniProt Q01813-1 1-784, looked up)
chain: MDADDSRAPKGSLRKFLEHLSGAGKAIGVLTSGGDAQGMNAAVRAVVRMGIYVGAKVYFIYEGYQGMVDGGSNIAEADWESVSSILQVGGTIIGSARCQAFRTREGRLKAACNLLQRGITNLCVIGGDGSLTGANLFRKEWSGLLEELARNGQIDKEAVQKYAYLNVVGMVGSIDNDFCGTDMTIGTDSALHRIIEVVDAIMTTAQSHQRTFVLEVMGRHCGYLALVSALACGADWVFLPESPPEEGWEEQMCVKLSENRARKKRLNIIIVAEGAIDTQNKPITSEKIKELVVTQLGYDTRVTILGHVQRGGTPSAFDRILASRMGVEAVIALLEATPDTPACVVSLNGNHAVRLPLMECVQMTQDVQKAMDERRFQDAVRLRGRSFAGNLNTYKRLAIKLPDDQIPKTNCNVAVINVGAPAAGMNAAVRSAVRVGIADGHRMLAIYDGFDGFAKGQIKEIGWTDVGGWTGQGGSILGTKRVLPGKYLEEIATQMRTHSINALLIIGGFEAYLGLLELSAAREKHEEFCVPMVMVPATVSNNVPGSDFSIGADTALNTITDTCNRIKQSASGTKRRVFIIETMGGYCGYLANMGGLAAGADAAYIFEEPFDIRDLQSNVEHLTEKMKTTIQRGLVLRNESCSENYTTDFIYQLYSEEGKGVFDCRKNVLGHMQQGGAPSPFDRNFGTKISARAMEWITAKLKEARGRGKKFTTDDSICVLGISKRNVIFQPVAELKKQTDFEHRIPKEQWWLKLRPLMKILAKYKASYDVSDSGQLEHVQPWSV
As for B1, the “stoichiometry N” value was found to be 4.

B2: human liver phosphofructokinase-1 (PFKL), wild type, recombinant (enzyme)
chain: MAAVDLEKLRASGAGKAIGVLTSGGDAQGMNAAVRAVTRMGIYVGAKVFLIYEGYEGLVEGGENIKQANWLSVSNIIQLGGTIIGSARCKAFTTREGRRAAAYNLVQHGITNLCVIGGDGSLTGANIFRSEWGSLLEELVAEGKISETTARTYSHLNIAGLVGSIDNDFCGTDMTIGTDSALHRIMEVIDAITTTAQSHQRTFVLEVMGRHCGYLALVSALASGADWLFIPEAPPEDGWENFMCERLGETRSRGSRLNIIIIAEGAIDRNGKPISSSYVKDLVVQRLGFDTRVTVLGHVQRGGTPSAFDRILSSKMGMEAVMALLEATPDTPACVVTLSGNQSVRLPLMECVQMTKEVQKAMDDKRFDEATQLRGGSFENNWNIYKLLAHQKPPKEKSNFSLAILNVGAPAAGMNAAVRSAVRTGISHGHTVYVVHDGFEGLAKGQVQEVGWHDVAGWLGRGGSMLGTKRTLPKGQLESIVENIRIYGIHALLVVGGFEAYEGVLQLVEARGRYEELCIVMCVIPATISNNVPGTDFSLGSDTAVNAAMESCDRIKQSASGTKRRVFIVETMGGYCGYLATVTGIAVGADAAYVFEDPFNIHDLKVNVEHMTEKMKTDIQRGLVLRNEKCHDYYTTEFLYNLYSSEGKGVFDCRTNVLGHLQQGGAPTPFDRNYGTKLGVKAMLWLSEKLREVYRKGRVFANAPDSACVIGLKKKAVAFSPVTELKKDTDFEHRMPREQWWLSLRLMLKMLAQYRISMAAYVSGELEHVTRRTLSMDKGF
Regarding B2, the “stoichiometry N” value was 4 and > 4.

B3: human liver phosphofructokinase-1 with the cancer-associated mutation D553N (PFKL-D553N), recombinant (enzyme)
chain: MAAVDLEKLRASGAGKAIGVLTSGGDAQGMNAAVRAVTRMGIYVGAKVFLIYEGYEGLVEGGENIKQANWLSVSNIIQLGGTIIGSARCKAFTTREGRRAAAYNLVQHGITNLCVIGGDGSLTGANIFRSEWGSLLEELVAEGKISETTARTYSHLNIAGLVGSIDNDFCGTDMTIGTDSALHRIMEVIDAITTTAQSHQRTFVLEVMGRHCGYLALVSALASGADWLFIPEAPPEDGWENFMCERLGETRSRGSRLNIIIIAEGAIDRNGKPISSSYVKDLVVQRLGFDTRVTVLGHVQRGGTPSAFDRILSSKMGMEAVMALLEATPDTPACVVTLSGNQSVRLPLMECVQMTKEVQKAMDDKRFDEATQLRGGSFENNWNIYKLLAHQKPPKEKSNFSLAILNVGAPAAGMNAAVRSAVRTGISHGHTVYVVHDGFEGLAKGQVQEVGWHDVAGWLGRGGSMLGTKRTLPKGQLESIVENIRIYGIHALLVVGGFEAYEGVLQLVEARGRYEELCIVMCVIPATISNNVPGTDFSLGSDTAVNAAMESCNRIKQSASGTKRRVFIVETMGGYCGYLATVTGIAVGADAAYVFEDPFNIHDLKVNVEHMTEKMKTDIQRGLVLRNEKCHDYYTTEFLYNLYSSEGKGVFDCRTNVLGHLQQGGAPTPFDRNYGTKLGVKAMLWLSEKLREVYRKGRVFANAPDSACVIGLKKKAVAFSPVTELKKDTDFEHRMPREQWWLSLRLMLKMLAQYRISMAAYVSGELEHVTRRTLSMDKGF
Regarding B3, the “stoichiometry N” value stood at 4.
